Experiment [1] addresses T1, wild type full-length cynomolgus monkey TIGIT expressed on CHO cells (cynomolgus monkey, UniProt A0A7N9I9V4 89-312).
T1 construct: whole, on cells; also called cynomolgus TIGIT-CHO cells
Put plainly: flow cytometry, blocking of CD155-Fc-PE binding to cynomolgus TIGIT CHO cells, geomean of 2 experiments.

The target of experiment [2] is T2, full-length human FcγRIIIa variant V/V expressed on CHO cells (human, UniProt P08637 17-254).
T2 construct: whole, on cells; also called human FcγRIIIa-CHO (variant V/V); human FcγRIIIa (V/V) CHO cells
The experiment is described as follows: flow cytometry on CHO cells expressing human FcγRIIIa variant V/V, PE anti-human IgG Fc detection. The procedure:
The ability of anti-TIGIT×CD96 multispecific molecules to bind to variant V/V or variant F/F of human FcγRIIIa expressed on the surface of CHO cells was assessed. Briefly, CHO cells were transfected with a vector encoding full-length human FcγRIIIa (human FcγRIIIa-CHO) variant V/V or F/F, and clones stably expressing FcγRIIIa (variant V/V or variant F/F) were selected.
(§1) For the antibody binding assay, a frozen aliquot of human FcγRIIIa-CHO (variant V/V or variant F/F) cells was thawed at 37° C. and then transferred to a tube containing DPBS supplemented with 0.5% Bovine Serum Albumin and 0.05% Sodium Azide (FACS Buffer). Cells were centrifuged at 300 g for five minutes. The supernatant was discarded, and cells resuspended in FACS buffer were seeded in a 96-well U-bottom tissue culture plate at a density of 2×10⁵ cells per well in 50 μL. In a separate microplate, a 2× concentrated intermediate stock of each multispecific molecule was prepared. […] After a 30-minute incubation on ice, the cells were washed twice with cold FACS Buffer, and the cells were analyzed by flow cytometry (BD LSR Fortessa Flow Cytometer). The data were analyzed using the FlowJo software by sequentially gating the FSC-A vs. SSC-A, and SSC-H vs. SSC-A. Mean fluorescence intensity (MFI) values for PE were calculated, and the data were plotted by GraphPad Prism software.

Experiment [3] addresses T3, wild type full-length human CD96 isoform 1 expressed on CHO cells (human, UniProt P40200 22-585).
T3 construct: whole, on cells; also called human CD96-CHO (isoform 1)
T3 sequence (looked up): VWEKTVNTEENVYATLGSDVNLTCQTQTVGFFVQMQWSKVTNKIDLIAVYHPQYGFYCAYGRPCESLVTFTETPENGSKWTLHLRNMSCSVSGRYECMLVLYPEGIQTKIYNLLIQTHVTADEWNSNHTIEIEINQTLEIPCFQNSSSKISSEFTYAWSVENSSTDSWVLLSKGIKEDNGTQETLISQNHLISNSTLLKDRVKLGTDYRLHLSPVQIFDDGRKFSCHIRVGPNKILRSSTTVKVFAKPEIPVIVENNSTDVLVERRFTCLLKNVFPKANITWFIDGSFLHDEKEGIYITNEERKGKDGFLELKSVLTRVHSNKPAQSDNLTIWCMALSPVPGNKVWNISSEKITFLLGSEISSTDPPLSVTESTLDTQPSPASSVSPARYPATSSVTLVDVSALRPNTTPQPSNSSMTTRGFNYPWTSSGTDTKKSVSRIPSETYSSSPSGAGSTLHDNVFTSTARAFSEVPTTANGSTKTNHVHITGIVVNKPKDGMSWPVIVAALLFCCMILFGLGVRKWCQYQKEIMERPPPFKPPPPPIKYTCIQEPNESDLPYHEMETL
Put plainly: flow cytometry, human CD96 (isoform 1) CHO cells, 1 experiment. How it is done: as §1, with “CD96-CHO cells (isoform 1” for “FcγRIIIa-CHO (variant V/V”, “isoform 2)” for “variant F/F) cells”, “antibody” for “multispecific molecule”, “prepared. Antibodies were serially diluted 1-to-3 in FACS buffer. A total of 11 working dilutions ranging from 60 μg/mL to 0.001 μg/mL were prepared. Fifty microlitres of each dilution were then transferred to the microplate containing human CD96-CHO cells. The cells were then incubated for 45 minutes at 4° C.” for “prepared.”

T1 sequence (A0A7N9I9V4 entry or part of it): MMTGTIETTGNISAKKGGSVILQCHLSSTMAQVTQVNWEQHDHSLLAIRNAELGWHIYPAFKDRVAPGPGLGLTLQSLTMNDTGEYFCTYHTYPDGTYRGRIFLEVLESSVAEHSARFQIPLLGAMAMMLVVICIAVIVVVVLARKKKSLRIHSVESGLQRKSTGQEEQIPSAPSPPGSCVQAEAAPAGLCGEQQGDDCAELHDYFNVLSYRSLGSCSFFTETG
T2 sequence (P08637 other isoform, or with tags, fused parts or gaps mutant limits assumed): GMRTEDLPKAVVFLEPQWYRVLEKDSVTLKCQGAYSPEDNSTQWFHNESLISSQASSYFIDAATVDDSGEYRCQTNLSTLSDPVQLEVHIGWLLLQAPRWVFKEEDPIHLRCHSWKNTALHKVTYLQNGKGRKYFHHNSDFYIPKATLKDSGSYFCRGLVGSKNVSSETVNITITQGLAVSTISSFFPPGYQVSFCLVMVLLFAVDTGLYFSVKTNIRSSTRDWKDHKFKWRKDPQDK

B1: anti-TIGIT×CD96 multispecific molecule BA123 (bispecific antibody, human IgG1, kappa, lambda)
heavy 1: QVQLVQSGAEVKKPGASVKVSCKASGYTFTSYGISWVRQAPGQGLEWMGWISAYNANTNYAQKLQGRVTMTTDTSTSTAYMELRSLRSDDTAVYYCARSAGVLGGMDVWGRGTLVTVSSASTKGPSVFPLAPSSKSTSGGTAALGCLVKDYFPEPVTVSWNSGALTSGVHTFPAVLQSSGLYSLSSVVTVPSSSLGTQTYICNVNHKPSNTKVDKRVEPKSCDKTHTCPPCPAPELLGGPDVFLFPPKPKDTLMISRTPEVTCVVVDVSHEDPEVKFNWYVDGVEVHNAKTKPREEQYNSTYRVVSVLTVLHQDWLNGKEYKCKVSNKALPAPIEKTISKAKGQPREPQVYTLPPSREEMTKNQVSLSCAVKGFYPSDIAVEWESNGQPENNYKTTPPVLDSDGSFFLVSKLTVDKSRWQQGNVFSCSVMHEALHNHYTQKSLSLSPG
light 1: not shown
heavy 2: EVQLVQSGAEVKKPGSSVKVSCKASGYTFASYGISWVRQAPGQGLEWMGGITPFFNRVDVAEKFQGRVTITADKSTSTAYIELSSLRSEDTAVYYCARDLRRGGVGDAFDIWGRGTLVTVSSASTKGPSVFPLAPSSKSTSGGTAALGCLVKDYFPEPVTVSWNSGALTSGVHTFPAVLQSSGLYSLSSVVTVPSSSLGTQTYICNVNHKPSNTKVDKRVEPKSCDKTHTCPPCPAPELLGGPDVFLFPPKPKDTLMISRTPEVTCVVVDVSHEDPEVKFNWYVDGVEVHNAKTKPREEQYNSTYRVVSVLTVLHQDWLNGKEYKCKVSNKALPLPEEKTISKAKGQPREPQVYTLPPSREEMTKNQVSLWCLVKGFYPSDIAVEWESNGQPENNYKTTPPVLDSDGSFFLYSKLTVDKSRWQQGNVFSCSVMHEALHNHYTQKSLSLSPG
light 2: QSALTQPRSVSGSPGQSVTISCTGTSPDVGSHAYRSWYQQHPGKAPKLMIYEVSYRPSGVSNRFSGSKSGNTASLTISGLQAEDEADYYCSSYPPSSATVFGAGTKLTVLGQPKAAPSVTLFPPSSEELQANKATLVCLISDFYPGAVTVAWKADSSPVKAGVETTTPSKQSNNKYAASSYLSLTPEQWKSHRSYSCQVTHEGSTVEKTVAPTEC
notes: copies: 1 + 1 + 1 + 1
B1 had an IC50 in experiment [1] of 2.35 µg/mL. For the same molecule, the “EC50 (read off the curve)” value in experiment [2] was ~0.3 µg/mL. Further, the half-maximal effective concentration (EC50) in experiment [3] came out at 0.0113 µg/mL.

B2: anti-TIGIT×CD96 multispecific molecule BA127 (bispecific antibody, human IgG1, kappa, lambda)
heavy 1: QVQLVQSGAEVKKPGASVKVSCKASGYTFTTYALHWVRQAPGQRLEWMGWINTGSGDTKYSQKFQGRVTITRDTSASTAYMELSSLRSEDTAVYYCARSLGVYYGMDVWGQGTLVTVSSASTKGPSVFPLAPSSKSTSGGTAALGCLVKDYFPEPVTVSWNSGALTSGVHTFPAVLQSSGLYSLSSVVTVPSSSLGTQTYICNVNHKPSNTKVDKRVEPKSCDKTHTCPPCPAPELLGGPDVFLFPPKPKDTLMISRTPEVTCVVVDVSHEDPEVKFNWYVDGVEVHNAKTKPREEQYNSTYRVVSVLTVLHQDWLNGKEYKCKVSNKALPAPIEKTISKAKGQPREPQVYTLPPSREEMTKNQVSLSCAVKGFYPSDIAVEWESNGQPENNYKTTPPVLDSDGSFFLVSKLTVDKSRWQQGNVFSCSVMHEALHNHYTQKSLSLSPG
light 1: not shown
heavy 2: EVQLVQSGAEVKKPGSSVKVSCKASGYTFASYGISWVRQAPGQGLEWMGGITPFFNRVDVAEKFQGRVTITADKSTSTAYIELSSLRSEDTAVYYCARDLRRGGVGDAFDIWGRGTLVTVSSASTKGPSVFPLAPSSKSTSGGTAALGCLVKDYFPEPVTVSWNSGALTSGVHTFPAVLQSSGLYSLSSVVTVPSSSLGTQTYICNVNHKPSNTKVDKRVEPKSCDKTHTCPPCPAPELLGGPDVFLFPPKPKDTLMISRTPEVTCVVVDVSHEDPEVKFNWYVDGVEVHNAKTKPREEQYNSTYRVVSVLTVLHQDWLNGKEYKCKVSNKALPLPEEKTISKAKGQPREPQVYTLPPSREEMTKNQVSLWCLVKGFYPSDIAVEWESNGQPENNYKTTPPVLDSDGSFFLYSKLTVDKSRWQQGNVFSCSVMHEALHNHYTQKSLSLSPG
light 2: QSALTQPRSVSGSPGQSVTISCTGTSPDVGSHAYRSWYQQHPGKAPKLMIYEVSYRPSGVSNRFSGSKSGNTASLTISGLQAEDEADYYCSSYPPSSATVFGAGTKLTVLGQPKAAPSVTLFPPSSEELQANKATLVCLISDFYPGAVTVAWKADSSPVKAGVETTTPSKQSNNKYAASSYLSLTPEQWKSHRSYSCQVTHEGSTVEKTVAPTEC
notes: Anti-CD96 arm = BA139, anti-TIGIT arm = BA150; copies: 1 + 1 + 1 + 1
Turning to B2, the IC50 in experiment [1] was 2.81 µg/mL. Also, the “EC50 (read off the curve)” value in experiment [2] was ~0.2 µg/mL. In addition, in experiment [3], it took 0.0489 µg/mL to reach a half-maximal effect (EC50).

These data come from patent US20240141039A1 (AGENUS, published 2024).
